We go through one protein from PMC3485013, “Rubber Elongation Factor (REF), a Major Allergen Component in Hevea brasiliensis Latex Has Amyloid Properties” (PLoS ONE, 2012).

The series concerns the molecule itself. The series can be described thus: aggregation of the purified protein in solution (visible precipitation; aggregates examined by Congo red, CD, ATR-FTIR, TEM, WAXS); protein alone at 20 µM in 1x PBS pH 7.4, 37°C, 3 h, kept at 4°C (legend of Figure 2C: 50 µM).

B1: Rubber Elongation Factor (REF), recombinant 6His-REF (natural protein, Hevea brasiliensis, UniProt P15252 1-138, looked up)
chain: MAEDEDNQQGQGEGLKYLGFVQDAATYAVTTFSNVYLFAKDKSGPLQPGVDIIEGPVKNVAVPLYNRFSYIPNGALKFVDSTVVASVTIIDRSLPPIVKDASIQVVSAIRAAPEAARSLASSLPGQTKILAKVFYGEN
notes: gene synthesised after codon optimisation from GenBank X56535; No removal of the tag is described, and the same preparation is detected by anti-His antibody in the lipid dot blots; also called Hevb1; HbREF; source: E. coli BL21 (DE3) pLysS Gold, inclusion bodies, purified (Ni-NTA in 8 M urea, dialysed against buffer A); not shown: His6, N-terminal, kept
Take B1: the binding result is “binds”.
